# Experiments:
# Assay in all cases: Kd (EC50 corrected by depletion factor)
# IFIT5 = biological target: T1, IFIT5 (UniProt Q13325)
# T1 sequence: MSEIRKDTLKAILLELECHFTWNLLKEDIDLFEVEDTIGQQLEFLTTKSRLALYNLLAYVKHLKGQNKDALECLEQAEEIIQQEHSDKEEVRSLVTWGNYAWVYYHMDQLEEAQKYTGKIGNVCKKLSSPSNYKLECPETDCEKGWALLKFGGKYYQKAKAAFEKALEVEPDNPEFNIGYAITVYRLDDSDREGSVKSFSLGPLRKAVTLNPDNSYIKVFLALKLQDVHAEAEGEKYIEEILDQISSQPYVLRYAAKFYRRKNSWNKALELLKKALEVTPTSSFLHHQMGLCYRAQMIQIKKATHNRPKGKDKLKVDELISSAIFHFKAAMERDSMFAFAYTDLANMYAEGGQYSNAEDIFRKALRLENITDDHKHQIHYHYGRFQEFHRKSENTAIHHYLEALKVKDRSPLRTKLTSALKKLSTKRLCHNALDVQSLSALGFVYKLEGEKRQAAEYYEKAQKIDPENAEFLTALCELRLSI
# Procedure, shortened: (§1)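 Free RNA oligos (0 nM to 30 μM) were pre-incubated with HEK293-FT lysate (2.5 mg protein/well) for 1 h at 4°C, followed by 30 min at 4°C with the same 5′-amino-C6 oligos coupled to NHS-Sepharose beads. Bound proteins were quantified by label-free LC-MS/MS and normalised to the control. EC50 was derived from a four-parameter log-logistic fit, and Kd was obtained by multiplying EC50 by a protein-dependent depletion factor.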
# PTBP3 = PTBP3 (UniProt O95758)
# Procedure, shortened: as §1
# MRPL22 = MRPL22 (UniProt Q9NWU5)
# Procedure, shortened: as §1
# HNRNPM = biological target: T2, HNRNPM (UniProt P52272)
# T2 sequence: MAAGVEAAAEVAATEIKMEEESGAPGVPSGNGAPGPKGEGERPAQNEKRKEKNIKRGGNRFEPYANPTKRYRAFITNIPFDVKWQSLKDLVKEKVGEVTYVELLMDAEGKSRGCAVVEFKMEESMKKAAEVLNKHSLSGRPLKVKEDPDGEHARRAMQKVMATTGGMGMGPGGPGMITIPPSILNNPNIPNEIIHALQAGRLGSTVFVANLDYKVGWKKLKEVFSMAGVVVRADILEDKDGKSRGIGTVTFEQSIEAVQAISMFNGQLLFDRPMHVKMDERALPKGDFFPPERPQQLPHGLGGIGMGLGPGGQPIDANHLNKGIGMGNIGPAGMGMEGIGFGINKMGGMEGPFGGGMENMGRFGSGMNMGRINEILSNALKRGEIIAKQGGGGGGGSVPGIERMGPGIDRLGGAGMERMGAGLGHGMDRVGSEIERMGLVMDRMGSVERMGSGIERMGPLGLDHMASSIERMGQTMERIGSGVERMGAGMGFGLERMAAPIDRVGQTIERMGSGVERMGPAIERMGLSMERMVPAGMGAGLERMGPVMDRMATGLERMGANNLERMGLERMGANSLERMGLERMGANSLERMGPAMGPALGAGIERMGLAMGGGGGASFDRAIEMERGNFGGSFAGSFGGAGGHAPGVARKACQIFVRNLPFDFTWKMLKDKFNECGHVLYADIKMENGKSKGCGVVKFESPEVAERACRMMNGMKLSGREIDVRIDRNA
# Procedure, shortened: as §1
# PATL1 = biological target: T3, PATL1 (UniProt Q86TB9)
# T3 sequence: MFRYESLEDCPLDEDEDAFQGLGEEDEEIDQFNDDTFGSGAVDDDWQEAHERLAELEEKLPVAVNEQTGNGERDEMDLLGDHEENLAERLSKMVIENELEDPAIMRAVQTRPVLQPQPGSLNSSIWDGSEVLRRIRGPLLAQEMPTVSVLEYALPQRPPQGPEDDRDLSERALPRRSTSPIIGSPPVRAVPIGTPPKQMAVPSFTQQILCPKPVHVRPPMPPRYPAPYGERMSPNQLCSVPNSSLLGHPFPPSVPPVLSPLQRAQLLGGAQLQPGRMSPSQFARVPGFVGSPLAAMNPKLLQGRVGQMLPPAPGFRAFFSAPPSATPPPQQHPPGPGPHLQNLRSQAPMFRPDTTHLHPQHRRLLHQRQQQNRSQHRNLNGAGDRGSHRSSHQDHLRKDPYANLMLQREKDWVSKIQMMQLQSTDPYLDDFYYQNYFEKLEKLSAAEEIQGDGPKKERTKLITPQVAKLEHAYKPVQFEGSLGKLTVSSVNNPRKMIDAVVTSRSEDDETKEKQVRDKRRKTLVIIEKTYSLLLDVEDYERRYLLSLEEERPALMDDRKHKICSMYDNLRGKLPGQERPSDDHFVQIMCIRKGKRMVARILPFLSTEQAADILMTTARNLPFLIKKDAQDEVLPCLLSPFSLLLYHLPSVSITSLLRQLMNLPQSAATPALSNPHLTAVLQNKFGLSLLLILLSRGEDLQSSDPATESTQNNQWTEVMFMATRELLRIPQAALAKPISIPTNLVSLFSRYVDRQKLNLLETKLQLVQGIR
# Procedure, shortened: as §1
# PTBP3, sequence (O95758 whole entry): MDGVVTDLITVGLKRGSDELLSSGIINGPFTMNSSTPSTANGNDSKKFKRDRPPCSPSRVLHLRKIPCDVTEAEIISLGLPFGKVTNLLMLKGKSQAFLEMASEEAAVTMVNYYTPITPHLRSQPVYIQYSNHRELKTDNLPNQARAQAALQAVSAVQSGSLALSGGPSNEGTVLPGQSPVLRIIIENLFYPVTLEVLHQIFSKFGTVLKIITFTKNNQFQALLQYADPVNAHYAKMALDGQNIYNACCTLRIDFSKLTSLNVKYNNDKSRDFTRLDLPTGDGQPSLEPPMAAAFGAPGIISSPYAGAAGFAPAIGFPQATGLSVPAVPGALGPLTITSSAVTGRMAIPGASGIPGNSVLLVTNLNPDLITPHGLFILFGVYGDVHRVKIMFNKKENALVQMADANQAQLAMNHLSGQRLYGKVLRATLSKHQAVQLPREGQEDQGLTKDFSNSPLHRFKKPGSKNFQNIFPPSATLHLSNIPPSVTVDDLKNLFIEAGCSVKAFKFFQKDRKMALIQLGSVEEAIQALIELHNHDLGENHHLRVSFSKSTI
sequence,measurement,setting,value
AAUAAA,Kd,IFIT5,363 nM
same,Kd,PTBP3,1290 nM
CUGUCCU,Kd,MRPL22,67.4 nM
UAUUUAU,Kd,HNRNPM,4410 nM
same,Kd,PATL1,258 nM
